# According to the RNAGym collection of RNA variant scans (doi:10.7554/elife.80360):
# B1: HDV Ribozyme (parent)
# chain: GGCCGGCAUGGUCCCAGCCUCCUCGCUGGCGCCGGCUGGGCAACAUUCCGAGGGGACCGUCCCCUCGGUAAUGGCGAAUGGGACCCA
# Variants of: B1
# Assay: self-cleavage, relative activity (ratio to wild type); higher = more cleavage; co-transcriptional
row,Variant,self-cleavage
1,U12C G40A,0.305
2,C22G G81A,0.0528
3,A16C C22A,0.0594
4,C26A U46C,0.745
5,G55A U60C,0.9
6,C33U G50A,0.774
7,C22U C86U,0.674
8,C15U C75A,0.0326
9,U37G C75U,0.0594
10,G5U G6U,0
11,C21G G74U,0.0554
12,G6A U9A,0.942
13,U12C G68C,0.145
14,A56C C58G,1.26
15,G11A U47A,0.249
16,A45C A70C,0.615
17,C4G C18A,0.0287
18,G11U U60A,0.277
19,A8G A70C,0.519
20,U9A C84U,0.749
21,C61A A77U,0.389
22,U23G C24G,0.16
23,G40A G53U,0.823
24,C48A A71C,0.688

row,Variant,self-cleavage
1,C18G U65G,0.115
2,A16G G28U,0.0519
3,C15G G55A,0.522
4,A43C G67C,0.243
5,G54U C75G,0.114
6,G50A A78C,0.138
7,C18U U65C,0.831
8,C22U U72C,0.193
9,C36G G81C,0.0656
10,C18A C33G,0
11,C3G G74A,0.114
12,C19A G25U,0.0791
13,G54U C86G,1.01
14,C26A A70G,1.11
15,U47G U69A,1.27
16,G11C C30A,0.0804
17,G54C C86A,0.962
18,G54C G82A,0.226
19,C15A C57G,0.623
20,C21G G80C,0.177
21,G2C G39C,0
22,C58U G74U,0.51
23,C44U C63U,0.806
24,C41G U46G,0.231

row,Variant,self-cleavage
1,U23A G39U,0.696
2,G40C U69G,0.361
3,U37A A71C,0.19
4,C26G G34A,0.54
5,G5C C64G,0.0462
6,U23C C30A,0.369
7,G39A C44A,0.0405
8,G11A A83U,0.203
9,G11U C18U,0.0504
10,C15U G67U,0.972
11,C44U G73A,0.946
12,G17A G73A,0.34
13,C26U A51U,0.901
14,G11U G54U,0.422
15,G35U U69A,0.212
16,C44A C86A,1.08
17,U37A C44G,0.0898
18,A8U G35U,0.262
19,G25U U47G,0.0692
20,C3A A16U,0.318
21,U47G C86A,0.814
22,G11U C66U,0.249
23,G2U G34A,0.0671
24,A45G U46G,0.643

row,Variant,self-cleavage
1,A42G C84U,0.525
2,G6U C41U,0.259
3,G28A G67A,0.0936
4,A42U G74A,0.343
5,U69C,1.02
6,C19U U23C,0
7,G2C G53U,0.0665
8,C21G G29U,0.0733
9,C19A A78C,0.0248
10,G10C G31C,0.237
11,U47G U79C,0.322
12,C32G G81U,0.0639
13,U23A C49U,1.13
14,U72C A77U,0.285
15,U72C A77G,0.229
16,C48A G52C,1.03
17,C13G C44G,0
18,A51U U65G,1.3
19,C30G C84G,0.0755
20,G38C A83U,0.0361
21,U72A C84U,0.578
22,U72A C84G,0.213
23,C13U G80A,0.31
24,A16C G53U,0.755

row,Variant,self-cleavage
1,A51C G59C,0.807
2,G25C G81U,0.151
3,C41U A51U,0.932
4,U12G G54C,0.831
5,G25U U72A,0.0707
6,A45C G80C,0.0504
7,C3A G59A,0.739
8,U9A C18U,0.991
9,G10A G34C,0.227
10,U46C C66G,0.594
11,C13U G76A,0.743
12,U23G G82A,0.0449
13,G28U A70G,0.0707
14,C21U U79A,0.0573
15,G74U G81U,0.156
16,G50U G82U,0.633
17,G29U G31A,0.135
18,C48G C64U,0.85
19,C14A G31C,0.0678
20,A45C G74C,0.0594
21,U46C G73U,0.151
22,G17C G35C,0.0437
23,C49A G74U,0.415
24,G31C U65C,0.361

row,Variant,self-cleavage
1,C32U C66U,0.926
2,U12C A51G,0.369
3,C24A G34C,0.0852
4,C63U U69A,0.975
5,G28U A71G,0.0554
6,G1A G2C,0.0773
7,C48A G74C,0.208
8,G29U C86U,0.0959
9,U12A U47A,0.302
10,G53U C85G,0.818
11,G5U A8C,0.0875
12,C14G C30G,0.0692
13,C57G C63U,1.12
14,C21A A77C,0
15,A8G C22G,0.0489
16,C21G G55C,0.135
17,U60G G73C,0.323
18,U27G C41G,0.802
19,U12A C66A,0.193
20,A42U A77U,0.0739
21,C15G G29C,0
22,C26U U72G,0.721
23,G31A C58G,0.393
24,G38A A43G,0.155

row,Variant,self-cleavage
1,C21A C26U,0
2,C58U G73C,0.608
3,G35U G55A,0.477
4,C7G C84A,0.111
5,C62A G68A,0.842
6,C3U G76A,0.908
7,G55U G74U,0.707
8,C3G G34C,0.192
9,C26U G29U,0.136
10,A56U G59A,0.926
11,G67U G74U,0.453
12,G1C G2C,1.06
13,G2C U23C,0
14,C21A G53A,0.0791
15,G40U A77C,0.145
16,G2A C63G,0.0804
17,C24A G54C,0.741
18,C3A G68U,0.465
19,G1C C24U,0.0489
20,G29C U37A,0.201
21,C3U U9A,0.904
22,G38C C63G,0.287
23,G25C G55A,0.158
